Where no end group is shown, it is not given here. eCPX = enhanced circularly permuted OmpX display scaffold; linker = not defined here
What was measured:
[1] = molecular target: T1, Mcl-1 (biotinylated pro-survival Bcl-2 family protein) (UniProt Q07820 171-327, biotinylated (co-expressed E. coli biotin ligase BirA)); test: cell surface display FACS titration; apparent Kd
T1 chain: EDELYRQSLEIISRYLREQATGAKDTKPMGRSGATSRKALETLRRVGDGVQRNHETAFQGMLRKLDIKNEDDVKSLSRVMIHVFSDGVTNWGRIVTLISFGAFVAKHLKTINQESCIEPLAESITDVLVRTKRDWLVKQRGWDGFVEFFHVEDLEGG

[2] = molecular target: T2, A1 (biotinylated pro-survival Bcl-2 family protein) (UniProt Q16548 1-152, biotinylated (co-expressed E. coli biotin ligase BirA)); test: flow cytometry, bacterial surface display (eCPX); apparent Kd; FIG. 7AH
T2 chain: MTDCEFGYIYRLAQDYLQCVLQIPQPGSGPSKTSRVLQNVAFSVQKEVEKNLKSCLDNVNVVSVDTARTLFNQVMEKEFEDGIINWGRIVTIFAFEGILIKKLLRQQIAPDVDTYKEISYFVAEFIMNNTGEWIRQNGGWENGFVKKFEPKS

[3] = molecular target: Bcl-2 (biotinylated pro-survival Bcl-2 family protein) (UniProt P10415 1-217, biotinylated (co-expressed E. coli biotin ligase BirA)); test: cell surface display FACS titration; apparent Kd
Bcl-2 (biotinylated pro-survival Bcl-2 family protein), sequence (P10415 1-217): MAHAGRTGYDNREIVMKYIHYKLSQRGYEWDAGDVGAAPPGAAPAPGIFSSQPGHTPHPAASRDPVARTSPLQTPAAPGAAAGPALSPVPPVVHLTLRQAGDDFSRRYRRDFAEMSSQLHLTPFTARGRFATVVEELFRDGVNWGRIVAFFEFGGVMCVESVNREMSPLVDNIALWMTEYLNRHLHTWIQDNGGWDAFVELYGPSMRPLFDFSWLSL

## WIAQTLRRIGDEFN [Bim BH3 14-mer E151T displayed on eCPX]
[1]
  Kd: 0.0332 µM

## WLAQLLRRYGDEFN (also: displayed as fusion to eCPX scaffold (letters not given here)) [Bim BH3 14-mer variant X2-8 displayed on eCPX]
[2]
  Kd: 0.0058 µM

B1: Bim BH3 14-mer variant M2-2 displayed on eCPX (peptide)
peptide: WVAQLLRRIGDEVN-{linker-eCPX}
modifications: reading uncertain; also: printed as Trp-Val-Ala-Gln-Leu-Leu-Arg-Arg-Ile-Gly-Asp-Glu-Val-Asn
[3]
  Kd: > 10 µM

## WIAQLLRRIGDEFN [Bim BH3 14-mer E151L displayed on eCPX]
[1]
  Kd: 0.0178 µM

Reference: patent US20150045310A1 (published 2015)
